Earlier results on one substance are cited in article PMC8471248.

This series deals with cell-surface GRP78 (Homo sapiens) (UniProt P11021).
Sequence of UniProt P11021 (P11021 19-654): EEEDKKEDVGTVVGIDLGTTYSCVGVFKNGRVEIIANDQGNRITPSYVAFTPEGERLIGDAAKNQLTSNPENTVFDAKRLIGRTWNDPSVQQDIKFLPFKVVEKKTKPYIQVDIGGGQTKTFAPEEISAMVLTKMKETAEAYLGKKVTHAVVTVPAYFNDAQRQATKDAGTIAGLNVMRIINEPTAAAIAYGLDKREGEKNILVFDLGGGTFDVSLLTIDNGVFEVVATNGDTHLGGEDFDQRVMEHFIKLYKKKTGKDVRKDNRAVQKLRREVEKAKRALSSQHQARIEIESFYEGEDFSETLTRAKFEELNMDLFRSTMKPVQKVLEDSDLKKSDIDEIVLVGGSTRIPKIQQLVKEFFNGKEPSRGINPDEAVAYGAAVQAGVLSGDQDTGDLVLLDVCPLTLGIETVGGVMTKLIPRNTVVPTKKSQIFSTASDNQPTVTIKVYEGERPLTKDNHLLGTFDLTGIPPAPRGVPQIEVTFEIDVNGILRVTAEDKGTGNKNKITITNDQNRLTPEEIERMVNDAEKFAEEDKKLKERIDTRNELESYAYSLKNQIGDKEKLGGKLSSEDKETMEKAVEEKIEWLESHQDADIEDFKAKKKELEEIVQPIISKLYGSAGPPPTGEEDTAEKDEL

Broadly, the Kd is a measure of binding affinity in units of concentration. For “Activated alpha 2-macroglobulin (from UniProt P01023)”, the equilibrium dissociation constant (Kd) is 0.1 nM.
